Stoichiometry N data for two substances are collected here from article doi:10.1101/431494.

The term stoichiometry N denotes a count of units in the complex or per binding partner.

The target of test [1] is Haliangium ochraceum encapsulated ferritin, residues 1-98, C-terminal hexa-histidine tagged variant (Haliangium ochraceum) (UniProt D0LZ73). In words: SDS-PAGE.
Test [2] deals with Haliangium ochraceum encapsulated ferritin as crystallised (PDB 5N5F) (Haliangium ochraceum) (UniProt D0LZ73). The test is described as follows: crystal structure.

“Haliangium ochraceum encapsulated ferritin, residues 1-98, C-terminal hexa-histidine tagged variant (from UniProt D0LZ73 1-98) (domain or fragment)” displayed a stoichiometry N in test [1] of 2. For “Haliangium ochraceum encapsulated ferritin as crystallised (PDB 5N5F) (from UniProt D0LZ73 1-98) (domain or fragment)”, in test [2], the stoichiometry N was 10.
